Measured values reported in PMC12608094, “STN1 Shields CTC1 From TRIM32‐Mediated Ubiquitination to Prevent Cellular Aging” (Aging Cell, 2025).

What was measured:
[1] = biological target: T1, Flag-tagged CTC1 (wild type) (human, UniProt Q2NKJ3 1-1217)
T1 sequence (looked up): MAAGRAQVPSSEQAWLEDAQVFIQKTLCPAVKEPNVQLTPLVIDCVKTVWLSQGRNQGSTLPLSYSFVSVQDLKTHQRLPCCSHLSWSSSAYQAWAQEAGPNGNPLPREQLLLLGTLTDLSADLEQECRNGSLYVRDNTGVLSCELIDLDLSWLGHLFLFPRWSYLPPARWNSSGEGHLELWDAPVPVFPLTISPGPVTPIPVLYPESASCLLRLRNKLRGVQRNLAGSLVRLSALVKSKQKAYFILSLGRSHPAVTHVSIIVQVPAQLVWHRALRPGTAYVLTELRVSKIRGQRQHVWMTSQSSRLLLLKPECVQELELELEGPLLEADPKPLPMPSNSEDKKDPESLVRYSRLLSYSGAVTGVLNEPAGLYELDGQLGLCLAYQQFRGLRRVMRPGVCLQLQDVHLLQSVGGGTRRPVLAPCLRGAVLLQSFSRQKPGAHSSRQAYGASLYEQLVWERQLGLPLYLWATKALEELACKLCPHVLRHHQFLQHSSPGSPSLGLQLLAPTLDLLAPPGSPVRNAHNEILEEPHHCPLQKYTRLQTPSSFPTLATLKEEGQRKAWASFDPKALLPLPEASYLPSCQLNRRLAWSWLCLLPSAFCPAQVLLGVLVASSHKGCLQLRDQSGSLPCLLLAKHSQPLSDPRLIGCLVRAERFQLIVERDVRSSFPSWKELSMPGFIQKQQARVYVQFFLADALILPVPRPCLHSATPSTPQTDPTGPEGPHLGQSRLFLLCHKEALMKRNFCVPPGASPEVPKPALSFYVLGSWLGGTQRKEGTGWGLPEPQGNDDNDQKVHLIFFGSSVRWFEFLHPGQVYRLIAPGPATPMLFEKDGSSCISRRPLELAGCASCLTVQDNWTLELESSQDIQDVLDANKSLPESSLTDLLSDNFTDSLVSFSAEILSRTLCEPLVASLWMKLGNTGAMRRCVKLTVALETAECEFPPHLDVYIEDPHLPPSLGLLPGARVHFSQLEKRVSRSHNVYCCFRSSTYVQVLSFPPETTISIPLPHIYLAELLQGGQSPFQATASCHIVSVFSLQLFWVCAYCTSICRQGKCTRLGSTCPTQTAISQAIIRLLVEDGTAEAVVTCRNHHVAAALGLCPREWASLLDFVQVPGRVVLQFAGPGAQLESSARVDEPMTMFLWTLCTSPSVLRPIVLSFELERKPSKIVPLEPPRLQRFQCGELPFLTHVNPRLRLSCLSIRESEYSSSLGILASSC

[2] = biological target: T1, Flag-tagged CTC1 (wild type); test: cell-based or functional assay

Question: Which half-life of Flag-CTC1 in HEK293T cells (CHX chase over 12 h) with HA-STN1OB [1] does the source give for “HA-tagged STN1 OB (N-terminal half-truncation) (domain or fragment)” here?
Answer: 8 h

Question: “HA-tagged STN1 wHTH (C-terminal half-truncation) (domain or fragment)” was tested. Which half-life of Flag-CTC1 in HEK293T cells (CHX chase over 12 h) with HA-STN1 wHTH [1] did it give?
Answer: 5 h

B1: HA-tagged STN1 (wild type) (natural protein, human, UniProt Q9H668 1-368, looked up)
chain: MQPGSSRCEEETPSLLWGLDPVFLAFAKLYIRDILDMKESRQVPGVFLYNGHPIKQVDVLGTVIGVRERDAFYSYGVDDSTGVINCICWKKLNTESVSAAPSAARELSLTSQLKKLQETIEQKTKIEIGDTIRVRGSIRTYREEREIHATTYYKVDDPVWNIQIARMLELPTIYRKVYDQPFHSSALEKEEALSNPGALDLPSLTSLLSEKAKEFLMENRVQSFYQQELEMVESLLSLANQPVIHSASSDQVNFKKDTTSKAIHSIFKNAIQLLQEKGLVFQKDDGFDNLYYVTREDKDLHRKIHRIIQQDCQKPNHMEKGCHFLHILACARLSIRPGLSEAVLQQVLELLEDQSDIVSTMEHYYTAF
Question: With B1 as the molecule, how does the “half-life of Flag-CTC1 in HEK293T cells (CHX chase over 12 h) with HA-STN1 WT” value [2] read?
Answer: 10 h
